Data on 13 molecules can be found in US20180327503A1 (RINAT NEUROSCIENCE, published 2018).

One may read the Kd as the constant that tells how readily two partners part at equilibrium. Higher therefore signals lower affinity. The term koff denotes a measure of how fast the partners let go of each other. The low end stands for slow dissociation, the high end for fast dissociation. By kon is commonly meant the rate constant with which the complex forms. A higher kon goes with fast association.

The chains are these.
T1: Human IL-7R-hFc antigen (R&D systems) (human, UniProt P16871 21-239)
T1 construct: Bought from R&D Systems; not shown: human Fc (hFc) of the bought fusion
T1 sequence (looked up): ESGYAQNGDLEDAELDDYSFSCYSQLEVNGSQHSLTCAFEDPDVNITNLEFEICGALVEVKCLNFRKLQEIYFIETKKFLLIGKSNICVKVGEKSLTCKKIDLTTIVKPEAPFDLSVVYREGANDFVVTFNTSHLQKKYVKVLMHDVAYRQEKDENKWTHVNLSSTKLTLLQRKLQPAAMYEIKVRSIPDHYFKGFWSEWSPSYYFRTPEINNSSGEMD

T2: human IL-7R on human peripheral blood mononuclear cells (CD4+ gated) (human, UniProt P16871 21-459)
T2 sequence (looked up): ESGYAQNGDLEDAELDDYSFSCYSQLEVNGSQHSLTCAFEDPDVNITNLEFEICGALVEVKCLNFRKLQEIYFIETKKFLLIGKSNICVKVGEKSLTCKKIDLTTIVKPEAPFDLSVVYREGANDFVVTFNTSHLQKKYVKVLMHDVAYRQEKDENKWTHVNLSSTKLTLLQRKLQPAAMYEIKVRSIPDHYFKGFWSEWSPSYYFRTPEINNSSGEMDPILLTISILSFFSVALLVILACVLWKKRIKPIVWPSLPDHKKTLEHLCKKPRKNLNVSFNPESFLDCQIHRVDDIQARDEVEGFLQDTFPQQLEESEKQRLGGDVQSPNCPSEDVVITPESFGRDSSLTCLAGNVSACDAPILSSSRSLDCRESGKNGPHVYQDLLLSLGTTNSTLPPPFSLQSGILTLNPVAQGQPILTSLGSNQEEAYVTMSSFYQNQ

B1: P4B3 Fab (Fab, V domains shown)
VH: QVTLKESGGGLVQPGGSLRLSCAASGFTFSNYGMHWVRQAPGKGLEWVSAISGSGGSTYYADSVKGRFTISRDNSKNTVYLQMNSLRDEDTAVYYCARDISGGGMDVWGQGTTVTVSS
VL: NFMLTQPHSVSESPGKTVTISCTGSSGRIASSYVQWYQQRPGSAPTTVIYEDNQRPSGVPDRFSGSIDSSSNSASLTISGLKTEDEADYYCQSYASSSLWVFGGGTQLTVLS
B2: C1GM (hIgG1) (antibody)
heavy: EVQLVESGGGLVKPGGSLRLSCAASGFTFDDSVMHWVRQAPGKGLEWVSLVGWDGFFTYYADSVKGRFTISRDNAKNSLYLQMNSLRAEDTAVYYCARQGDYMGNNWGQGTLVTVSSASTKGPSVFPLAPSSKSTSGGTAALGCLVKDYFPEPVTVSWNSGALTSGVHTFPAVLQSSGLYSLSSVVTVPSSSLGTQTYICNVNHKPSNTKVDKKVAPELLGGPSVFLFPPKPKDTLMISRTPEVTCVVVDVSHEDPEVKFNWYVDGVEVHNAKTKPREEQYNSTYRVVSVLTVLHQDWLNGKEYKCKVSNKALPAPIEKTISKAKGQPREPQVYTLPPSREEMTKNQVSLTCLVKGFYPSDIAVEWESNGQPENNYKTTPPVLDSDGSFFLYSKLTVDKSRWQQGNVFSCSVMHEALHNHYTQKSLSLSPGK
light: NFMLTQPHSVSESPGKTVTISCTRSSGSIDSSYVQWYQQRPGSSPTTVIYEDDQRPSGVPDRFSGSIDSSSNSASLTISGLKTEDEADYYCQSYDFHHLVFGGGTKLTVLQPKAAPSVTLFPPSSEELQANKATLVCLISDFYPGAVTVAWKADSSPVKAGVETTTPSKQSNNKYAASSYLSLTPEQWKSHRSYSCQVTHEGSTVEKTVAPTECS
B3: C1GM-2 (hIgG2ΔA) (antibody)
heavy: EVQLVESGGGLVKPGGSLRLSCAASGFTFDDSVMHWVRQAPGKGLEWVSLVGWDGFFTYYADSVKGRFTISRDNAKNSLYLQMNSLRAEDTAVYYCARQGDYMGNNWGQGTLVTVSSASTKGPSVFPLAPCSRSTSESTAALGCLVKDYFPEPVTVSWNSGALTSGVHTFPAVLQSSGLYSLSSVVTVPSSNFGTQTYTCNVDHKPSNTKVDKTVAPPVAGPSVFLFPPKPKDTLMISRTPEVTCVVVDVSHEDPEVQFNWYVDGVEVHNAKTKPREEQFNSTFRVVSVLTVVHQDWLNGKEYKCKVSNKGLPSSIEKTISKTKGQPREPQVYTLPPSREEMTKNQVSLTCLVKGFYPSDIAVEWESNGQPENNYKTTPPMLDSDGSFFLYSKLTVDKSRWQQGNVFSCSVMHEALHNHYTQKSLSLSPGK
light: NFMLTQPHSVSESPGKTVTISCTRSSGSIDSSYVQWYQQRPGSSPTTVIYEDDQRPSGVPDRFSGSIDSSSNSASLTISGLKTEDEADYYCQSYDFHHLVFGGGTKLTVLQPKAAPSVTLFPPSSEELQANKATLVCLISDFYPGAVTVAWKADSSPVKAGVETTTPSKQSNNKYAASSYLSLTPEQWKSHRSYSCQVTHEGSTVEKTVAPTECS
notes: the footnote is printed with **)
B4: C2M3 (hIgG2ΔA) (antibody, V domains shown)
VH: EVQLVESGGGLVKPGGSLRLSCAASGFTFDDSVMHWVRQAPGKGLEWVSLVGWDGFFTYYADSVKGRFTISRDNAKNSLYLQMNSLRAEDTAVYYCARQGDYMGNNWGQGTLVTVSS
VL: NFMLTQPHSVSESPGKTVTISCTRSSGSIDSSYVQWYQQRPGSSPTTVIYEDDQRPSGVPDRFSGSIDSSSNSASLTISGLKTEDEADYYCMQYDFHHLVFGGGTKLTVL
notes: the footnote is printed with **); Only variable domains are tied to C2M3
B5: C2M3 (hIgG1) (antibody, V domains shown)
VH: EVQLVESGGGLVKPGGSLRLSCAASGFTFDDSVMHWVRQAPGKGLEWVSLVGWDGFFTYYADSVKGRFTISRDNAKNSLYLQMNSLRAEDTAVYYCARQGDYMGNNWGQGTLVTVSS
VL: NFMLTQPHSVSESPGKTVTISCTRSSGSIDSSYVQWYQQRPGSSPTTVIYEDDQRPSGVPDRFSGSIDSSSNSASLTISGLKTEDEADYYCMQYDFHHLVFGGGTKLTVL
notes: Only variable domains are tied to C2M3
B6: HAL403a Fab (Fab, V domains shown)
VH: QVNLRESGGGLVKPGGSLRLSCAASGFTFDDSVMHWVRQAPGKGLEWLSLVGWDGFFTYYADSVKGRFTISRDNTKNLLYLQMNSLRAEDTAVYYCARQGDYMGNNWGQGTLVTVSS
VL: NFMLTQPHSVSGSPGKTVTISCTRSSGSIDSSYVQWYQQRPGNSPTTVIYEDDQRPSGVPDRFSGSIDSSSNSASLTISGLVTEDEADYYCQSYDFHHLVFGGGTKLTVLC
B7: P3A9 Fab (Fab, V domains shown)
VH: QVNLRESGGGLVKPGGSLRLSCAASGFTFDDSVMHWVRQAPGKGLEWLSLVGWDGSATYYADSVKGRFTISRDNTKNLLYLQMNSLRAEDTAVYYCARQGDYVFDYWGQGTLVTVSS
VL: NFMLTQPHSVSGSPGKTVTISCTRSSGSIDSSYVQWYQQRPGNSPTTVIYEDDQRPSGVPDRFSGSIDSSSNSASLTISGLVTEDEADYYCQSYDSSHLVFGGGTKLTVLC
B8: HAL403b Fab (Fab, V domains shown)
VH: QVNLRESGGGLVKPGGSLRLSCAASGFTFDDSVMHWVRQAPGKGLEWLSLVGWDGFFTYYADSVKGRFTISRDNTKNLLYLQMNSLRAEDTAVYYCARQGDYMGNNWGQGTLVTVSS
VL: NFMLTQPHSVSGSPGKTVTISCTRSSGSIDSSYVQWYQQRPGNSPTTVIYEDDQRPSGVPDRFSGSIDSSSNSASLTISGLVTEDEADYYCMQYDFHHLVFGGGTKLTVLC
B9: P2E11 Fab (Fab, V domains shown)
VH: QVNLRESGGGLVKPGGSLRLSCAASGFTFDDSVMHWVRQAPGKGLEWLSLVGWDGFFTYYADSVKGRFTISRDNTKNLLYLQMNSLRAEDTAVYYCARQGDYMGDYWGQGTLVTVSS
VL: NFMLTQPHSVSGSPGKTVTISCTRSSGSIDSSYVQWYQQRPGNSPTTVIYEDDQRPSGVPDRFSGSIDSSSNSASLTISGLVTEDEADYYCQSYDFHHLVFGGGTKLTVLC
B10: C1GM Fab (Fab, V domains shown)
VH: EVQLVESGGGLVKPGGSLRLSCAASGFTFDDSVMHWVRQAPGKGLEWVSLVGWDGFFTYYADSVKGRFTISRDNAKNSLYLQMNSLRAEDTAVYYCARQGDYMGNNWGQGTLVTVSS
VL: NFMLTQPHSVSESPGKTVTISCTRSSGSIDSSYVQWYQQRPGSSPTTVIYEDDQRPSGVPDRFSGSIDSSSNSASLTISGLKTEDEADYYCQSYDFHHLVFGGGTKLTVL
B11: P2D2 Fab (Fab, V domains shown)
VH: QVNLRESGGGLVKPGGSLRLSCAASGFTFDDSVMHWVRQAPGKGLEWLSLVGWDGFFTYYADSVKGRFTISRDNTKNLLYLQMNSLRAEDTAVYYCARQGDYVFNNWGQGTLVTVSS
VL: NFMLTQPHSVSGSPGKTVTISCTRSSGSIDSSYVQWYQQRPGNSPTTVIYEDDQRPSGVPDRFSGSIDSSSNSASLTISGLVTEDEADYYCMQYDSSHLVFGGGTKLTVLC
B12: P2D2 (antagonist IL-7R fully human monoclonal antibody, format not stated) (antibody, V domains shown)
VH: QVNLRESGGGLVKPGGSLRLSCAASGFTFDDSVMHWVRQAPGKGLEWLSLVGWDGFFTYYADSVKGRFTISRDNTKNLLYLQMNSLRAEDTAVYYCARQGDYVFNNWGQGTLVTVSS
VL: NFMLTQPHSVSGSPGKTVTISCTRSSGSIDSSYVQWYQQRPGNSPTTVIYEDDQRPSGVPDRFSGSIDSSSNSASLTISGLVTEDEADYYCMQYDSSHLVFGGGTKLTVLC
B13: P2E11 (antagonist IL-7R fully human monoclonal antibody, format not stated) (antibody, V domains shown)
VH: QVNLRESGGGLVKPGGSLRLSCAASGFTFDDSVMHWVRQAPGKGLEWLSLVGWDGFFTYYADSVKGRFTISRDNTKNLLYLQMNSLRAEDTAVYYCARQGDYMGDYWGQGTLVTVSS
VL: NFMLTQPHSVSGSPGKTVTISCTRSSGSIDSSYVQWYQQRPGNSPTTVIYEDDQRPSGVPDRFSGSIDSSSNSASLTISGLVTEDEADYYCQSYDFHHLVFGGGTKLTVLC

One experiment deals with T1, Human IL-7R-hFc antigen (R&D systems). Kind of experiment: SPR (Biacore 2000/3000), IL-7R-hFc captured on anti-human Fc, antibody as analyte. The protocol:
The affinities of antagonist IL-7R antibodies to human IL-7R were measured on a surface plasmon resonance Biacore™ 2000 or 3000 biosensor equipped with a research-grade CM5 sensor chip (Biacore™ AB, Uppsala, Sweden—now GE Healthcare). Goat polyclonal anti-human F(ab′)2 fragments (Fc specific) were amine-coupled at saturating levels onto all four flow cells using a standard N-hydroxysuccinimide/ethyldimethylaminopropyl carbodiimide (NHS/EDC) chemistry in HBS-P running buffer (from Biacore™). The buffer was switched to HBS-P containing 1 mg/mL BSA. Human IL-7R-hFc antigen (R&D systems, Minneapolis, USA) was diluted to about 30 μg/mL and captured for 3 min at 5 μL/min to give levels of about 500-1000 RU per flow cell, leaving one blank to serve as a reference channel. Fab, hIgG1, or hIgG2ΔA formats of the antibodies were injected in duplicates as a 5-membered 3-fold series starting at 2 μM and a 5-membered 4-fold series starting at 0.4 μM for 3 min at 20-50 μL/min. Dissociation was monitored for 5 min. The capture chip was regenerated after the last injection of each titration with two 30 sec pulses of 75 mM phosphoric acid or 10 mM Glycine-HCl pH 1.7. Buffer cycles provided blanks for double-referencing the binding response data, which were then fit globally to a simple reversible binding model using Biaevaluation software v.4.1 to deduce the kinetic association and dissociation rate constants, respectively kₐ and kd. Affinities were deduced from their ratio (KD=kd/kₐ).
In general terms: SPR reads the build-up and loss of mass on a sensor chip optically.
B1 gave a Kd of 225000 pM, a koff of 0.00351 s⁻¹ and a kon of 15600 M⁻¹ s⁻¹.
The matching figures for B2: 286 pM, 0.000405 s⁻¹ and 1.42e+06 M⁻¹ s⁻¹.
For the molecule B3, binding was characterised by a dissociation constant (Kd) of 270 pM, the koff is 0.000407 s⁻¹ and the kon worked out at 1.51e+06 M⁻¹ s⁻¹.
On the same counts, the results for B4 are 195 pM, 0.000302 s⁻¹ and 1.55e+06 M⁻¹ s⁻¹.
B5: binding was characterised by a dissociation constant (Kd) of 218 pM, the koff is 0.000307 s⁻¹ and the kon turned out to be 1.41e+06 M⁻¹ s⁻¹.
The matching figures for B6: 60 pM, 0.000286 s⁻¹ and 5.07e+06 M⁻¹ s⁻¹.
On the same counts, the results for B7 are 204000 pM, 0.0114 s⁻¹ and 56000 M⁻¹ s⁻¹.
On the same counts, the results for B8 are 60 pM, 8.08e-05 s⁻¹ and 1.39e+06 M⁻¹ s⁻¹.
On to B9, for which the Kd is 3000 pM, the koff was 0.000497 s⁻¹ and the kon was determined as 155000 M⁻¹ s⁻¹.
On the same counts, the results for B10 are 40 pM, 0.000171 s⁻¹ and 4.85e+06 M⁻¹ s⁻¹.
On the same counts, the results for B11 are 12000 pM, 0.000882 s⁻¹ and 71700 M⁻¹ s⁻¹.

The target of the next experiment is T2, human IL-7R on human peripheral blood …. As to the kind of experiment: cell-based or functional assay.
As to B12, the “IC50 (read off the curve)” value was roughly 0.1 µg/mL.
The same measure, in the same setting: the result for B13 reads roughly 0.04 µg/mL.
